Laboratory results published in paper PMC4177580, “Diverse functional evolution of serine decarboxylases: identification of two novel acetaldehyde synthases that uses hydrophobic amino acids as substrates” (BMC Plant Biology, 2014).

What was measured:
[1] = target: T1, SlAAAD (Solanum lycopersicum, UniProt Q1KSC6); experiment: HPLC-EC decarboxylation assay; type: biochemical; conditions: 5 mM substrate, 20 mM HEPES pH 7.5, 25°C, 10 min
T1 construct: gene AADC1A; recombinant from bacterial expression plasmid pTYB12 (IMPACT-CN)
T1 sequence (Q1KSC6 1-471): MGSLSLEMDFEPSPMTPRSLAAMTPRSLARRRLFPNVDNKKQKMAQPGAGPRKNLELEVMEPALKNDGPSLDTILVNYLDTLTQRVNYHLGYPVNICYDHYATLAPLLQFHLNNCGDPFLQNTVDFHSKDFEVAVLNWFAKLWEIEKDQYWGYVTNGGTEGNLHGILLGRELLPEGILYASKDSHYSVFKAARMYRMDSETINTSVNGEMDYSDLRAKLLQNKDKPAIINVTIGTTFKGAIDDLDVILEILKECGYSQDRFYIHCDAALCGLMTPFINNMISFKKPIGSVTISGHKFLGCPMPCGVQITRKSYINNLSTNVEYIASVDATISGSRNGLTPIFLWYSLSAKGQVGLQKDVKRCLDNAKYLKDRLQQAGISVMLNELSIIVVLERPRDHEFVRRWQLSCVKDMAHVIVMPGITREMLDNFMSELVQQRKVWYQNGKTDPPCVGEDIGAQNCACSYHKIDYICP

[2] = target: T2, AtSDC (Arabidopsis thaliana, UniProt Q9MA74); experiment: HPLC-EC decarboxylation assay; type: biochemical; conditions: 5 mM substrate, 20 mM HEPES pH 7.5, 25°C, 10 min
T2 construct: gene SDC; recombinant from bacterial expression plasmid pTYB12 (IMPACT-CN)
T2 sequence (Q9MA74 1-482): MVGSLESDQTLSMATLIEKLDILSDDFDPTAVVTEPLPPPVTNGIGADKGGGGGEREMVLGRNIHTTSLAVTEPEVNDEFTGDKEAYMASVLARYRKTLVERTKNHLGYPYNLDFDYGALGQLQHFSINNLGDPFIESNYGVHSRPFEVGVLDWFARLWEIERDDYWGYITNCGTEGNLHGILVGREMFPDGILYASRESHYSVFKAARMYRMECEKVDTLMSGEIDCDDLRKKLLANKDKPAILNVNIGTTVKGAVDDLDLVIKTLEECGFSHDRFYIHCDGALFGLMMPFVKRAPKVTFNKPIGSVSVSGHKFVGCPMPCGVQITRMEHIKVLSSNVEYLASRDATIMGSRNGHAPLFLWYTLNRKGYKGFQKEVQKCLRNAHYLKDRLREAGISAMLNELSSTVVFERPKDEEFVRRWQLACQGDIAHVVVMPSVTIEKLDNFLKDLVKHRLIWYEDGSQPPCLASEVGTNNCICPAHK

[3] = substrate: CC(C)C[C@H](N)C(=O)O; experiment: purified protein; conditions: 20 mM HEPES pH 7.5, 25°C, 5 min, hyperbolic regression
[4] = substrate: N[C@@H](Cc1ccccc1)C(=O)O; experiment: peroxide assay (Pierce Quantitative Peroxide Assay Kit); type: biochemical, Medicago truncatula; conditions: 20 mM HEPES pH 7.5, 25°C, 5 min, hyperbolic regression
Source text: (§1) peroxide assay (Pierce Quantitative Peroxide Assay Kit) on MtAAS

[5] = substrate: CSCC[C@H](N)C(=O)O; experiment: as above; type: biochemical, Medicago truncatula; conditions: 20 mM HEPES pH 7.5, 25°C, 5 min, hyperbolic regression
Source text: as §1

[6] = substrate: N[C@@H](Cc1c[nH]c2ccccc12)C(=O)O; experiment: as above; type: biochemical, Medicago truncatula; conditions: 20 mM HEPES pH 7.5, 25°C, 5 min, hyperbolic regression
Source text: as §1

[7] = substrate: N[C@@H](Cc1ccccc1)C(=O)O; experiment: as above; type: biochemical, Cicer arietinum; conditions: 20 mM HEPES pH 7.5, 25°C, 5 min, hyperbolic regression
Source text: (§2) peroxide assay (Pierce Quantitative Peroxide Assay Kit) on CaAAS

[8] = substrate: CSCC[C@H](N)C(=O)O; experiment: as above; type: biochemical, Cicer arietinum; conditions: 20 mM HEPES pH 7.5, 25°C, 5 min, hyperbolic regression
Source text: as §2

[9] = substrate: N[C@@H](Cc1c[nH]c2ccccc12)C(=O)O; experiment: as above; type: biochemical, Cicer arietinum; conditions: 20 mM HEPES pH 7.5, 25°C, 5 min, hyperbolic regression
Source text: as §2

Q: N[C@@H](Cc1ccc(O)cc1)C(=O)O [tyrosine] was tested. Which HPLC-EC decarboxylation assay [1] did it give?
A: The HPLC-EC decarboxylation assay was “SlAAAD decarboxylation assay demonstrated activity towards tyrosine, dopa, phenylalanine and tryptophan”.

Q: How did the HPLC-EC decarboxylation assay [1] turn out when N[C@@H](Cc1ccccc1)C(=O)O [phenylalanine] was run?
A: Its HPLC-EC decarboxylation assay is “SlAAAD decarboxylation assay demonstrated activity towards tyrosine, dopa, phenylalanine and tryptophan”.

Q: How did the HPLC-EC decarboxylation assay [2] turn out when N[C@@H](CO)C(=O)O [serine] was run?
A: The HPLC-EC decarboxylation assay was “AtSDC only has activity towards serine”.

B1: MtAAS (Medicago truncatula) (protein)
chain: MAMTFIPDAELLPTVVVNAKLSREEKHDEENIIGLTNLDVTKSIGETDANLDAIIAHYAQTITKYNMRNLGYPTNQDFNYEALAPLLQFHLNNAGDPFLGSSFSLNSMAFEVSVLDWFAKLWEIEKNEYWGYVTTGGTEGNLHGILAGREQLPDGILYTSQDSHYSIAKIAKMYRMKCVKVDSLLSGEIDCVQLEASLLAHKDKPAIINLNIGTTLKGGIDDLDLVIQTLNKCGFTRDRFYIHCDGALFGIMLPFIKQAPRISFKKPIDSVTISGHKFLGCPSPCGVLITRLKYMNALSRDVDIIASRDATITGSRCGHAPIFLWYALKKRGLIGLENEVHECIMKAHYLLNLLRDAGIGAMLNKFSNIVVFERPLDDHFTRRWNLASNKNTAHVVVLKHVTVEMLDSFVREFTEKQSIWYKDEQFQPPCIANDVGSRNCACSIHNLSRNC
notes: recombinant from bacterial expression plasmid pTYB12 (IMPACT-CN)
Q: What does the source list for B1?
A: Km [3]: 7600 ± 700 µM; kcat [3]: 0.197 s⁻¹; kcat/Km [3]: 30 M⁻¹ s⁻¹; Km [4]: 20 ± 10 µM; kcat [4]: 0.358 ± 0.005 s⁻¹; kcat/Km [4]: 17900 ± 2290 M⁻¹ s⁻¹; Km [5]: 1900 ± 200 µM; kcat [5]: 0.144 ± 0.006 s⁻¹; kcat/Km [5]: 80 ± 10 M⁻¹ s⁻¹; Km [6]: 1700 ± 300 µM; kcat [6]: 0.125 ± 0.008 s⁻¹; kcat/Km [6]: 70 ± 10 M⁻¹ s⁻¹

B2: CaAAS (Cicer arietinum) (protein)
chain: MGSLEGNNMLSMVVSNAKLAREEERQENINITNTNLTINQCIGETDANLKAIITHYVDTLTYSSLRNLGYPTNQDFNYDALASLFHFHLNNAGDPFVGSSFSLNSTKFEVGVLDWFAELWEIEKSDYWGYVTTGGTEGNLHGILVGREQFPDGILYTSQDSHYSIFKIARMYRMECVKVGSLLSGEIDCVELEASLLAHKDKPAIINLNIGTTMKGGIDDLDIVIQTLKKCGFTRDRFYIHCDGALFGIMLPFIKQAQRISFKKPIDSVTISGHKFLGCPSPCGVVITRLKYINELSRDVEIIASRDATITGSRCGHAPILLWYALKKKGLIGLKNEVHECIINARYLLDQLRDAGIGAMLNEFSNIVVFEKPLDDNFTRRWNLATKGNIAHVVVLMHVTKEMLDTFVREFIQKRSIWYKHGHFQPLCIANHVGSTNCVCSIHKLS
notes: as for B1
Q: What does the source list for B2?
A: Km [7]: 90 ± 10 µM; kcat [7]: 0.595 ± 0.009 s⁻¹; kcat/Km [7]: 6600 ± 650 M⁻¹ s⁻¹; Km [8]: 1620 ± 200 µM; kcat [8]: 0.351 ± 0.012 s⁻¹; kcat/Km [8]: 220 ± 10 M⁻¹ s⁻¹; Km [9]: 2800 ± 700 µM; kcat [9]: 0.187 ± 0.016 s⁻¹; kcat/Km [9]: 70 ± 100 M⁻¹ s⁻¹; Km [3]: 4600 ± 400 µM; kcat [3]: 0.467 s⁻¹; kcat/Km [3]: 100 M⁻¹ s⁻¹
